According to patent US20050153395A1, “Unique integrin binding site in connective tissue growth factor (CTGF)” (CHILDREN'S HOSPITAL INC., priority 2003, published 2005):

Legend:
[1] = molecular target: integrin αvβ3 (purified, human) (human) (UniProt P06756); test: solid phase ELISA, coated ligand, purified αvβ3 (1 µg/ml)
[2] = molecular target: integrin αvβ3 on activated rat hepatic stellate cells (HSC) (rat) (UniProt Q8R2H2); test: cell-based or functional assay
Chain of integrin αvβ3 on activated rat hepatic stellate cells (HSC) (rat) (Q8R2H2 26-787): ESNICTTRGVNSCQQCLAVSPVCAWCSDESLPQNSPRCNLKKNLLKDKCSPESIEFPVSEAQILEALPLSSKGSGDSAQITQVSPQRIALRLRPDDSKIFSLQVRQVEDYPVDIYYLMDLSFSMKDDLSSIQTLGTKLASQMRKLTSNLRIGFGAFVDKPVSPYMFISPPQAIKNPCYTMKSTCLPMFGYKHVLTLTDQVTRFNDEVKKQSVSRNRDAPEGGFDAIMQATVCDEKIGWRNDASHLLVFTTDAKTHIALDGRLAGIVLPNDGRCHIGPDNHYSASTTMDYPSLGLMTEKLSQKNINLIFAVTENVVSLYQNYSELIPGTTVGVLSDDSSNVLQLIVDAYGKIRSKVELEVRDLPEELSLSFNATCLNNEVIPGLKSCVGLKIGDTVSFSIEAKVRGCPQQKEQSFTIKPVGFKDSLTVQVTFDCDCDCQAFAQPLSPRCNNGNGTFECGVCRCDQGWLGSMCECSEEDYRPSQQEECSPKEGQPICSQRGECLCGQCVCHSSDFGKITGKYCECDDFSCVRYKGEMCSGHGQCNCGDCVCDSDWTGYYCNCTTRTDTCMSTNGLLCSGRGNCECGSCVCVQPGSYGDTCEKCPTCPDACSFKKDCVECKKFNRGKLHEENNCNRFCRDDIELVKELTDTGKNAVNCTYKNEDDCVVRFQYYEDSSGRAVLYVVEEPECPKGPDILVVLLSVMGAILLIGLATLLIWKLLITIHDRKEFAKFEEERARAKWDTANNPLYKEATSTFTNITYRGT

Chain of integrin αvβ3 (purified, human) (human) (P06756 31-1048, form in doubt, chain 1 of 2): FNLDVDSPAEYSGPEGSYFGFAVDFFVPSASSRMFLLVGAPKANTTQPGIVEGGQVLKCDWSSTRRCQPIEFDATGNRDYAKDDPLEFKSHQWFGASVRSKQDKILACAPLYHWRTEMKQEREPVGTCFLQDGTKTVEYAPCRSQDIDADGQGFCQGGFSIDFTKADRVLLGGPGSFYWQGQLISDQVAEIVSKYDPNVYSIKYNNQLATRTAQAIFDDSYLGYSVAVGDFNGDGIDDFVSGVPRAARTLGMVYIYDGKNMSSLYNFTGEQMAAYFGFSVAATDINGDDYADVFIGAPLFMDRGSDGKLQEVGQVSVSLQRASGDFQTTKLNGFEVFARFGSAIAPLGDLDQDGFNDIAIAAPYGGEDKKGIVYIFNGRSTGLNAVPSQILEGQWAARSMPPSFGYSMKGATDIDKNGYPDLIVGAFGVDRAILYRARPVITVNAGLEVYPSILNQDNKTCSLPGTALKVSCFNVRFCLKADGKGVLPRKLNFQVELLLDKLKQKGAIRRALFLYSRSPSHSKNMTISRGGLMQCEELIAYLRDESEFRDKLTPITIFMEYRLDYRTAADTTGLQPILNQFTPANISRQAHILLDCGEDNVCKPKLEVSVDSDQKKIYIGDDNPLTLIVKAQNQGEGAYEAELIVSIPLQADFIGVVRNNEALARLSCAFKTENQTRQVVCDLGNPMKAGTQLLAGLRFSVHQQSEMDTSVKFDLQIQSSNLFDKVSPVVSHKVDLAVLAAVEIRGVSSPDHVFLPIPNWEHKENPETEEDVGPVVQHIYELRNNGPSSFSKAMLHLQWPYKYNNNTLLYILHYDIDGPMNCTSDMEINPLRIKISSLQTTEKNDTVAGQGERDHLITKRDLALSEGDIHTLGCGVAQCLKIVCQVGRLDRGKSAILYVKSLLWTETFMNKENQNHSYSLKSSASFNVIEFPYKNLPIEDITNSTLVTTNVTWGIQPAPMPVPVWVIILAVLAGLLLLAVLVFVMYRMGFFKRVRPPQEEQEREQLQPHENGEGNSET
Chain of integrin αvβ3 (purified, human) (human) (P05106 27-788, form in doubt, chain 2 of 2, further chain): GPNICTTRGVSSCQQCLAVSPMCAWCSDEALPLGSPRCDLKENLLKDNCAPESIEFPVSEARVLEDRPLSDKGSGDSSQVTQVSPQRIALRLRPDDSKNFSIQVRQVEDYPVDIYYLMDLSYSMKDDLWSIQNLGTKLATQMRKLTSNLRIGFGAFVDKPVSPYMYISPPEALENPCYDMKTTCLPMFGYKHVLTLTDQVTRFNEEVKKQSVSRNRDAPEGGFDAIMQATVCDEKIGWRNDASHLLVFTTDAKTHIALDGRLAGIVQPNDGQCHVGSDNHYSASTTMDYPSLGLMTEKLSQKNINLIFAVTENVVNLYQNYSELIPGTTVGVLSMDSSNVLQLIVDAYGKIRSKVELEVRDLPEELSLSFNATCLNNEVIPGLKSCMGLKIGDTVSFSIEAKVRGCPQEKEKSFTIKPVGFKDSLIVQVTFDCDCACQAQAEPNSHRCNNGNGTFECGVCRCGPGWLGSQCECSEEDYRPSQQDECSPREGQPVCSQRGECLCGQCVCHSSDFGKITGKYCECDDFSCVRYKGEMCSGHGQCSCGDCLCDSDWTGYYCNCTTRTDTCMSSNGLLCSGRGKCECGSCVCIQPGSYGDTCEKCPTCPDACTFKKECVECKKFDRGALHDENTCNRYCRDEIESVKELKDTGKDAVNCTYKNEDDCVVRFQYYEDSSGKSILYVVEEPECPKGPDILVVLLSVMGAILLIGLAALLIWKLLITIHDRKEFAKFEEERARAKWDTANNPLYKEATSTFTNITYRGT

vitronectin (ligand) gave a coating concentration at saturation of binding [1] of 4 µg/mL and a decrease in HSC binding to vitronectin by RGD peptides (GRGDsp, Echistatin) [2] of 100%.
